Among the data in paper PMC7905068, “Bornyl Diphosphate Synthase From Cinnamomum burmanni and Its Application for (+)-Borneol Biosynthesis in Yeast” (Frontiers in Bioengineering and Biotechnology, 2021) are Km and kcat values, retold here.

Substrate in the series: CC(C)=CCC/C(C)=C/COP(=O)(O)OP(=O)(O)O
The series can be described thus: GC-MS of products after CIAP dephosphorylation, Michaelis-Menten fit. Format: biochemical, Cinnamomum burmanni. The following applies: 50 mM HEPES pH 7.2, 10 mM MgCl2, 5 mM DTT, 30 °C, 3 min, 0.125-150 μM GPP.

B1: CbTPS1 (Cinnamomum burmanni) (protein)
chain: MALQMTVPFLSSFLPNPRHRPTAHGFIPQERVSKHISCSTTTPTYSTTVPRRSGNYKPSIWDYDFVQSLVSDYKVEAHGTRVEKLKEVVKNLLKETDSSLAQMELIDSLHRLGVRWLFENEIKQVLYTVSSDNTSIEMKKDLHAVSTRFRLLRQHGFKVSTDVFNDFEDEKGCFKPSLSMDIKGMLSLYEASHLAFQGETILDEARAFTHAHLMGIKENIDPIIHKKVEHALDMPLHWRLEKLEARWYMDMYMREEGMNSSLLELAMLHFNIVQATFQTNLKSLSRWWKDLGLGEQLSFSRDRLVECFFWAAAMTSEPQFGRCQEAVAKVVQLTTTIDDIYDVYGTVDELELFTNAVDRWDLEAMEQLPEYMKTCFLALYNSINEIGYGILKEQGRNVIPYLRNAWTELCKAYLVEAKWYSSGYTPMLEEFLQTSWISVGSLPMQTYAFALLGQNLAPESCDFAEQISDILPLAGMLIRFPDDLGTSLDELKRGDVPKSIQCYMHEAGVTEDVARDHIMGLFRETWKKLNEYLVESSIPHAFIDQAMNLGRVSYCTYKHGDGFSDGFGDPGSQEKKMYMSLFVEPIQVDEAKGISFCVDGGYA
The term Km denotes the substrate concentration at which the rate is half of its maximum. For the protein B1, the Km amounted to 5.11 ± 1.70 µM and the kcat is recorded as 0.01 s^–1.
